Experimental data from patent US20220401544A1.

Assays:
[1] = target: N. meningitidis serogroup B factor H binding protein (fHBP, LP2086) variant A02 (Neisseria meningitidis serogroup B)
[2] = target: N. meningitidis serogroup B factor H binding protein (fHBP, LP2086) variant A28 (Neisseria meningitidis serogroup B)
[3] = target: N. meningitidis serogroup B factor H binding protein (fHBP, LP2086) variant A42 (Neisseria meningitidis serogroup B)
[4] = target: N. meningitidis serogroup B factor H binding protein (fHBP, LP2086) variant A63 (Neisseria meningitidis serogroup B)
[5] = target: N. meningitidis serogroup B factor H binding protein (fHBP, LP2086) variant A76 (Neisseria meningitidis serogroup B)
[6] = target: N. meningitidis serogroup B factor H binding protein (fHBP, LP2086) variant B05 (Neisseria meningitidis serogroup B) (UniProt E6MV22)
[7] = target: N. meningitidis serogroup B factor H binding protein (fHBP, LP2086) variant B07 (Neisseria meningitidis serogroup B) (UniProt E6MV22)
[8] = target: N. meningitidis serogroup B factor H binding protein (fHBP, LP2086) variant B08 (Neisseria meningitidis serogroup B) (UniProt E6MV22)
[9] = target: N. meningitidis serogroup B factor H binding protein (fHBP, LP2086) variant B107 (Neisseria meningitidis serogroup B)
[10] = target: N. meningitidis serogroup B factor H binding protein (fHBP, LP2086) variant B13 (Neisseria meningitidis serogroup B) (UniProt E6MV22)
[11] = target: N. meningitidis serogroup B factor H binding protein (fHBP, LP2086) variant B52 (Neisseria meningitidis serogroup B) (UniProt E6MV22)
[12] = target: N. meningitidis factor H binding protein (fHBP) variant A10 (Neisseria meningitidis serogroup B)
[13] = target: N. meningitidis serogroup B factor H binding protein (fHBP) variant A08 (Neisseria meningitidis serogroup B)
[14] = target: N. meningitidis serogroup B factor H binding protein (fHBP) variant A20 (Neisseria meningitidis serogroup B)
[15] = target: N. meningitidis serogroup B factor H binding protein (fHBP) variant A40 (Neisseria meningitidis serogroup B)
[16] = target: N. meningitidis serogroup B factor H binding protein (fHBP) variant A52 (Neisseria meningitidis serogroup B)
[17] = target: N. meningitidis serogroup B factor H binding protein (fHBP) variant B10 (Neisseria meningitidis serogroup B)
[18] = target: N. meningitidis serogroup B factor H binding protein (fHBP) variant B91 (Neisseria meningitidis serogroup B)
[19] = target: N. meningitidis serogroup B factor H binding protein (FHbp, LP2086) variant A06 (Neisseria meningitidis serogroup B)
[20] = target: N. meningitidis serogroup B factor H binding protein (FHbp, LP2086) variant A07 (Neisseria meningitidis serogroup B)
[21] = target: N. meningitidis serogroup B factor H binding protein (FHbp, LP2086) variant A12 (Neisseria meningitidis serogroup B)
[22] = target: N. meningitidis serogroup B factor H binding protein (FHbp, LP2086) variant A15 (Neisseria meningitidis serogroup B)
[23] = target: N. meningitidis serogroup B factor H binding protein (FHbp, LP2086) variant A19 (Neisseria meningitidis serogroup B)
[24] = target: N. meningitidis serogroup B factor H binding protein (FHbp, LP2086) variant A22 (Neisseria meningitidis serogroup B)
[25] = target: N. meningitidis serogroup B factor H binding protein (FHbp, LP2086) variant A29 (Neisseria meningitidis serogroup B)
[26] = target: N. meningitidis serogroup B factor H binding protein (FHbp, LP2086) variant A56 (Neisseria meningitidis serogroup B)
[27] = target: N. meningitidis serogroup B factor H binding protein (FHbp, LP2086) variant B03 (Neisseria meningitidis serogroup B) (UniProt E6MV22)
[28] = target: N. meningitidis serogroup B factor H binding protein (FHbp, LP2086) variant B09 (Neisseria meningitidis serogroup B) (UniProt E6MV22)
[29] = target: N. meningitidis serogroup B factor H binding protein (FHbp, LP2086) variant B15 (Neisseria meningitidis serogroup B) (UniProt E6MV22)
[30] = target: N. meningitidis serogroup B factor H binding protein (FHbp, LP2086) variant B16 (Neisseria meningitidis serogroup B) (UniProt E6MV22)
[31] = target: N. meningitidis serogroup B factor H binding protein (FHbp, LP2086) variant B24 (Neisseria meningitidis serogroup B) (UniProt E6MV22)
[32] = target: N. meningitidis serogroup B factor H binding protein (FHbp, LP2086) variant B44 (Neisseria meningitidis serogroup B)
[33] = target: N. meningitidis serogroup B factor H binding protein (FHbp, LP2086) variant A56 (Neisseria meningitidis serogroup B); assay: MEASURE flow cytometry, variant group A56 (only one strain)
[34] = target: N. meningitidis serogroup B factor H binding protein (FHbp, LP2086) variant A06 (Neisseria meningitidis serogroup B); assay: MEASURE flow cytometry, median over MenB isolates expressing A06
[35] = target: N. meningitidis serogroup B factor H binding protein (FHbp, LP2086) variant A12 (Neisseria meningitidis serogroup B); assay: MEASURE flow cytometry, median over MenB isolates expressing A12
[36] = target: N. meningitidis serogroup B factor H binding protein (FHbp, LP2086) variant A15 (Neisseria meningitidis serogroup B); assay: MEASURE flow cytometry, median over MenB isolates expressing A15
[37] = target: N. meningitidis serogroup B factor H binding protein (FHbp, LP2086) variant A19 (Neisseria meningitidis serogroup B); assay: MEASURE flow cytometry, median over MenB isolates expressing A19
[38] = target: N. meningitidis serogroup B factor H binding protein (FHbp, LP2086) variant A22 (Neisseria meningitidis serogroup B); assay: MEASURE flow cytometry, median over MenB isolates expressing A22
[39] = target: N. meningitidis serogroup B factor H binding protein (FHbp, LP2086) variant A29 (Neisseria meningitidis serogroup B); assay: MEASURE flow cytometry, median over MenB isolates expressing A29
[40] = target: N. meningitidis serogroup B factor H binding protein (FHbp, LP2086) variant B03 (Neisseria meningitidis serogroup B) (UniProt E6MV22); assay: MEASURE flow cytometry, median over MenB isolates expressing B03
[41] = target: N. meningitidis serogroup B factor H binding protein (FHbp, LP2086) variant B09 (Neisseria meningitidis serogroup B) (UniProt E6MV22); assay: MEASURE flow cytometry, median over MenB isolates expressing B09
[42] = target: N. meningitidis serogroup B factor H binding protein (FHbp, LP2086) variant B15 (Neisseria meningitidis serogroup B) (UniProt E6MV22); assay: MEASURE flow cytometry, median over MenB isolates expressing B15
[43] = target: N. meningitidis serogroup B factor H binding protein (FHbp, LP2086) variant B16 (Neisseria meningitidis serogroup B) (UniProt E6MV22); assay: MEASURE flow cytometry, median over MenB isolates expressing B16
[44] = target: N. meningitidis serogroup B factor H binding protein (FHbp, LP2086) variant B24 (Neisseria meningitidis serogroup B) (UniProt E6MV22); assay: MEASURE flow cytometry, median over MenB isolates expressing B24
[45] = target: N. meningitidis serogroup B factor H binding protein (FHbp, LP2086) variant B44 (Neisseria meningitidis serogroup B); assay: MEASURE flow cytometry, median over MenB isolates expressing B44

monoclonal antibody MN86-994-11
fHBP Expression (MFI) [1]: 13200 MFI
fHBP Expression (MFI) [2]: 4190 MFI
fHBP Expression (MFI) [3]: 1610 MFI
fHBP Expression (MFI) [4]: 10800 MFI
fHBP Expression (MFI) [5]: 11300 MFI
fHBP Expression (MFI) [6]: 2920 MFI
fHBP Expression (MFI) [7]: 1350 MFI
fHBP Expression (MFI) [8]: 1560 MFI
fHBP Expression (MFI) [9]: 11100 MFI
fHBP Expression (MFI) [10]: 1850 MFI
fHBP Expression (MFI) [11]: 8730 MFI
fHBP Expression (MFI) [12]: < 1000 MFI
fHBP Expression (MFI) [13]: < 1000 MFI
fHBP Expression (MFI) [14]: < 1000 MFI
fHBP Expression (MFI) [15]: < 1000 MFI
fHBP Expression (MFI) [16]: < 1000 MFI
fHBP Expression (MFI) [17]: < 1000 MFI
fHBP Expression (MFI) [18]: < 1000 MFI
Strain MEASURE MFI [19]: 3370 MFI
FHbp Variant Group MEASURE MFI Median [20]: 1100 MFI
Strain MEASURE MFI [20]: 1380 MFI
Strain MEASURE MFI [21]: 2540 MFI
Strain MEASURE MFI [22]: 3000 MFI
Strain MEASURE MFI [23]: 1930 MFI
Strain MEASURE MFI [24]: 3130 MFI
Strain MEASURE MFI [25]: 3840 MFI
Strain MEASURE MFI [26]: 5000 MFI
Strain MEASURE MFI [27]: 3980 MFI
Strain MEASURE MFI [28]: 2090 MFI
Strain MEASURE MFI [29]: 3780 MFI
Strain MEASURE MFI [30]: 2350 MFI
Strain MEASURE MFI [31]: 6970 MFI
Strain MEASURE MFI [32]: 11300 MFI
FHbp Variant Group MEASURE MFI Median [33]: 5000 MFI
FHbp Variant Group MEASURE MFI Median [34]: 3090 MFI
FHbp Variant Group MEASURE MFI Median [35]: 2470 MFI
FHbp Variant Group MEASURE MFI Median [36]: 2900 MFI
FHbp Variant Group MEASURE MFI Median [37]: 1760 MFI
FHbp Variant Group MEASURE MFI Median [38]: 2500 MFI
FHbp Variant Group MEASURE MFI Median [39]: 5990 MFI
FHbp Variant Group MEASURE MFI Median [40]: 2940 MFI
FHbp Variant Group MEASURE MFI Median [41]: 2280 MFI
FHbp Variant Group MEASURE MFI Median [42]: 4820 MFI
FHbp Variant Group MEASURE MFI Median [43]: 2000 MFI
FHbp Variant Group MEASURE MFI Median [44]: 8460 MFI
FHbp Variant Group MEASURE MFI Median [45]: 14800 MFI
